Test results as given in patent US20260125649A1, “MEDIUM COMPOSITION AND METHOD FOR CULTURING MESENCHYMAL STEM CELLS” (ACADEMIA SINICA, priority 2018, published 2026).

What was measured:
Type in all cases: cell-based, human
TACE = TACE activity assay in MSC lysates; conditions: EpEX-stimulated MSCs
Experimental: (§1) FIG. 9. EpEX induces the phosphorylation and activity of TACE and γ-secretase. MSCs were stimulated by EpEX for the indicated times, and the activity of TACE and γ-secretase were detected. MSCs were stimulated by EpEX (3 μg/mL) for the indicated times. Western blot analysis was performed to detect the phosphorylation of TACE and Presenilin 2.
(§2) ADAM17 activity was measured using the InnoZyme ADAM17 activity kit (Calbiochem). In brief, cell lysates were harvested and loaded into a TACE antibody-coated plate. After 1 h incubation, the lysate was removed and the plate was washed twice. Substrate was added into each well for 5 h at 37° C. After incubation, the fluorescence signal of the reaction product was detected at excitation of 324 nm and emission of 405 nm. For the detection of γ-secretase activity, cell lysates were extracted and 500 μg protein was used. γ-secretase activity was detected by γ-secretase substrate (35 μM).

STAT3 (Tyr705) = experiment: STAT3 phosphorylation by Western blotting; conditions: MSCs treated with the substance
Experimental: After treatment, the protein levels of total STAT3 and phospho-STAT3 (Tyr705) were examined by Western blotting. […] Cell cycle progression was investigated by flow cytometry with PI staining. Fraction of cells in each phase (G1, S, G2/M) of the cell cycle was evaluated. Cells expressing STAT3 shRNA were treated with EpEX for 18 h, after which cell cycle progression was investigated by flow cytometry with PI staining. Fraction of cells in each phase (G1, S, G2/M) of the cell cycle was evaluated. […] The protein levels of cell cycle regulators (cyclin D1, cyclin D2, cyclin E1, CDK4 and CDK9) and pluripotency factors (Oct4, Sox2, c-Myc, Lin28) were examined by Western blotting. MSCs expressing STAT3 shRNA or shLuc were stimulated with EpEX. After treatment, the protein levels of cell cycle regulators (cyclin D1, cyclin D2, cyclin E1, CDK4 and CDK9) and pluripotency factors (Oct4, Sox2, c-Myc, and Lin 28) were examined by Western blotting. […] After treatment, the gene expression of pluripotency factors (Oct4, Sox2, c-Myc, Lin28 and EpCAM) was examined by qPCR.
FIG. 8. EpEX and EGF induce the phosphorylation of EGFR and STAT3. […] The phosphorylation of EGFR (Tyr845) and STAT3 (Tyr705) were examined by Western blotting with specific antibodies.
Western blotting was performed as previously described (Takahashi et al., 2003). […]

RUNX2 = RUNX2 gene expression by qPCR during osteo-induction; conditions: EpEX in osteogenetic medium
Experimental: Calcium precipitation was measured by Alizarin Red S (ARS) staining to probe the efficiency of osteogenesis. […] Quantification of osteogenesis, as measured by ARS staining, is shown for each group. MSCs were induced by osteogenetic medium and treated with EpEX at indicated doses. The gene expression of RUNX2 was examined by qPCR. […] ARS staining was performed to check the efficiency of osteogenesis. MSCs were pretreated with let-7 inhibitor and then treated with EpEX for 14 days during osteo-induction. ARS staining was performed to check the efficiency of osteogenesis. […] RUNX2 gene expression was measured by qPCR. MSCs were pretreated with let-7 inhibitor and induced by EpEX. RUNX2 gene expression was examined by qPCR. […] Upon EpEX stimulation, phosphorylation of EGFR-STAT3 signaling is induced and subsequently upregulates the level of Lin28 which inhibits let-7. […]
Total RNA was extracted using TRI reagent (Invitrogen, CA, USA), and 5 μg of total RNA was reverse transcribed using oligo (dT) primer (Fermentas, Glen Burnie, MD, USA) with SuperScript III reverse transcriptase (Invitrogen). Quantitative real time RT-PCR (qPCR) was performed on cDNA using the Light Cycler 480 SYBR Green I Master kit (Roche Applied Science, Indianapolis, IN) and the LightCycler480 System (Roche Applied Science). […]

Oct4, Sox2, c-Myc, Lin28 = experiment: qPCR of pluripotency factors in MSCs; conditions: EpEX treatment
Text: The expression of let-7 was detected by qPCR. MSCs expressing EGFR shRNA, STAT3 shRNA or Lin28b shRNA were stimulated with EpEX. The expression of let-7 was detected by qPCR. […] Expression of pluripotency factors (Oct4, Sox2, c-Myc and Lin28) was examined by qPCR. MSCs were transfected with a let-7 mimetic, and then stimulated with EpEX. Protein levels of pluripotency factors (Oct4, Sox2, c-Myc, and Lin28) were examined by Western blotting.
Total RNA was extracted using TRI reagent (Invitrogen, CA, USA), and 5 μg of total RNA was reverse transcribed using oligo (dT) primer (Fermentas, Glen Burnie, MD, USA) with SuperScript III reverse transcriptase (Invitrogen). Quantitative real time RT-PCR (qPCR) was performed on cDNA using the Light Cycler 480 SYBR Green I Master kit (Roche Applied Science, Indianapolis, IN) and the LightCycler480 System (Roche Applied Science). The gene expression levels of each sample were normalized to the expression levels of glyceraldehyde 3-phosphate dehydrogenase (GAPDH).

γ-secretase = γ-secretase activity assay in MSC lysates; conditions: EpEX-stimulated MSCs
Experimental: as §1, §2

- activation of γ-secretase (γ-secretase): induced
B1: EpEX: extracellular domain of human EpCAM, 265 amino acids in length (SEQ ID NO: 2) (protein, listed as Homo sapiens)
chain: MAPPQVLAFGLLLAAATATFAAAQEECVCENYKLAVNCFVNNNRQCQCTSVGAQNTVICSKLAAKCLVMKAEMNGSKLGRRAKPEGALQNNDGLYDPDCDESGLFKAKQCNGTSMCWCVNTAGVRRTDKDTEITCSERVRTYWIIIELKHKAREKPYDSKSLRTALQKEITTRYQLDPKFITSILYENNVITIDLVQNSSQKTQNDVDIADVAYYFEKDVKGESLFHSKKMDLTVNGEQLDLDPGQTLIYYVDEKAPEFSMQGLK
- activation of TACE (TACE): induced
- STAT3 phosphorylation (STAT3 (Tyr705)): stimulates
- RUNX2 transcript level (RUNX2): increased
- expression of the gene for Oct4 (Oct4, Sox2, c-Myc, Lin28): can induce
